Data published in patent US20250108100A1, “C-TERMINAL FRAGMENT OF APOLIPOPROTEIN E AND APPLICATION THEREOF IN INHIBITING y-SECRETASE ACTIVITY” (SYNPHATEC (SHANGHAI) BIOPHARMACEUTICAL TECHNOLOGY CO., LTD., priority 2022, published 2025).
“Also recorded” adds a separate entry of the source.

Columns and labels:
[1] = tested on: human APP and β-secretase co-expressed in HEK 293T cells; test: HEK 293T cells co-expressing APP and β-secretase (BACE1): Aβ ELISA and β-CTF Western blot; format: cell-based
Protocol: The experiment was performed according to the standard procedure in the ELISA analysis kit of Invitrogen Company. • a) The target protein was expressed in HEK 293T cell line. Cells were subcultured one day before transfection, and transfection was performed when the degree of cell adhesion reached 70%-80%. The transfection reagent was lipofectamine2000 (ThermoFisher). • b) 4-6 hours post transfection, medium were replaced with fresh cell culture medium. • c) 36-48 hours post transfection, the cell culture medium was collected, and then the ELISA process was performed or the cell culture medium was frozen in a −80° C. refrigerator. • d) 50 μl of standard samples and experimental samples were added to each well of the 96-well plate. • e) 50 μl of human-derived Aβ40 or Aβ42 or mouse-derived Aβ40 detection antibody was added to each well of the 96-well plate. • f) The above samples were shaken gently and placed at room temperature for 3 hours. • g) The liquid in the well were removed, and the plate was washed 4 times with 1× wash buffer. • h) 100 μl of the buffer containing 1× anti-Rabbit IgG HRP was added. • i) The plate was shaken gently and placed at room temperature for […]. • j) The liquid in the well were removed, and the well was washed 4 times with 1× wash buffer. • k) 100 μl of Stabilized Chromogen was added to each well, and the plate was placed in the dark for 30 minutes at room temperature. • l) 100 μl of Stop Solution was added to each well. • m) The absorbance at 450 nm was measured with a microplate reader. 2.4 qRT-PCR
48 hours after transfection of HEK 293T cells and N2A cells, or 4.5 days after lentivirus infection of neurons, media and lysates were collected. Aβ40 and Aβ42 in the culture medium and cell lysates were detected by an Aβ ELISA kit as indicated in the protocol. (Invitrogen Technology; KHB3481 for human Aβ40, KHB3441 for human Aβ42 and KMB3481 for mouse Aβ40).
Data were analyzed by GraphPad Prism software (v6) using unpaired, paired, or one-sample t-tests. Aβ40 and Aβ42 levels were normalized to the corresponding GFP controls. α-CTF levels were normalized to FL-APP and corresponding GFP controls. All data are represented as mean±SEM. Statistical significance was defined as p<0.05. One, two, three and four stars (*) in the graph indicate p-values <0.05, <0.01, <0.001 and <0.0001, respectively.

[2] = tested on: HEK 293T cells expressing APP; test: APP-expressing HEK 293T cells co-incubated with culture medium containing secreted ApoE2 or ApoE CT: α-CTF; format: cell-based, human; details: vs GFP control
Protocol: (§1) • a) A plasmid expressing the target protein in mammalian cells was constructed, and the protein expression promoter is CAG. • b) The target protein was expressed in HEK 293T cell line. Cells were subcultured one day before transfection, and transfection was performed when the degree of cell adhesion reached 70%-80%. The transfection reagent was lipofectamine2000 (ThermoFisher). • c) 4-6 hours post transfection, the medium were replaced with fresh cell culture medium. • d) 36-48 hours post transfection, the cells were lysed (10% 1M tris-HCl (pH=6.8), 4% SDS, 20% glycerol, 0.01% bromophenol blue), and the protein samples were collected and used for Western blot or stored in a −80° C. freezer. • e) Polyacrylamide gel electrophoresis. Before protein loading, the protein was boiled at 98° C. for 10 min, and then centrifuged at 12000 rpm for 10 min. Electrophoresis: 80V for the upper stacking gel; 120V for the lower separating gel. • f) Protein transfer. […]

[3] = tested on: APLP1; test: γ-cleavage of APLP1 expressed in HEK 293T cells (Western blot); format: cell-based; details: PF03084014 at 1 μM
Protocol: as §1
Plasmids were transfected in HEK 293T or N2A cells for 36-48 hours and then lysed in cell lysis buffer [10% 1M tris-HCl (pH=6.8), 4% SDS, 20% glycerol, 0.01% bromophenol blue]. […] Finally, after washing 3 times with 1×TBST, the signal was detected by ECL Western blotting substrate (Solarbio, PE0010).

[4] = tested on: N100 (NOTCH fragment); test: γ-cleavage of NOTCH fragment N100 in HEK 293T cells co-expressing γ-secretase (Western blot); format: cell-based; details: N100-V5 and γ-secretase, PF03084014 at 1 uM
Protocol: Plasmids were transfected in HEK 293T or N2A cells for 36-48 hours and then lysed in cell lysis buffer [10% 1M tris-HCl (pH=6.8), 4% SDS, 20% glycerol, 0.01% bromophenol blue]. Lysates were shaken at room temperature for 10 min, then boiled for 10 min, and centrifuged at 12,000×g for 10 min. Proteins were run on 8% or 12% Tris-glycine SDS-PAGE and transferred to PVDF membranes (Life Technologies). Samples were incubated overnight at 4° C. with primary antibody diluted in 5% BSA buffer (in 1×TBST). After washing 3 times with 1×TBST, they were incubated with secondary antibody diluted in 5% BSA buffer (in 1×TBST) for 2 hours at room temperature. Finally, after washing 3 times with 1×TBST, the signal was detected by ECL Western blotting substrate (Solarbio, PE0010).

B1: ApoE CT: C-terminal fragment of ApoE, positions 216-299 of SEQ ID NO: 12; SEQ ID NO: 33 (protein)
chain: ARMEEMGSRTRDRLDEVKEQVAEVRAKLEEQAQQIRLQAEAFQARLKSWFEPLVEDMQRQWAGLVEKVQAAVGTSAAPVPSDNH
- Aβ40 in the presence of GI254023X ([1]; APP and BACE1, 1 μM GI254023X): decrease Aβ40
- β-CTF levels ([1]; APP and BACE1, Western blot): did not alter β-CTF levels
- production of Aβ40 ([1]; APP and β-secretase co-expressed, ELISA, vs GFP control): decreased Aβ40
- Aβ40 in cell lysates, decreased by ([1]; APP, BACE1): about 42%
- Aβ40 secreted into the cell culture medium, reduced by ([1]; APP, BACE1): about 75%
- Aβ42, reduced by ([1]; APP, BACE1): about 74%
- ratio of Aβ42/Aβ40 ([1]; APP, BACE1): remains unchanged
- Aβ40 ([1]; ELISA): 25 % of GFP control
- Aβ42 ([1]; ELISA): about 26 % of GFP control
- α-CTF produced by APP in cells co-incubated with protein in culture medium [2]: does not significantly alter α-CTF levels; also recorded: does not change the α-CTF; also recorded: does not alter the α-CTF
- α-like CTF of APLP1 [3]: does not increase the α-like CTF of APLP1; also recorded: did not increase the α-like CTF
- γ-secretase-dependent reduction of N100 [4]: failed to suppress
